From patent US20230035859A1, “COMPOSITIONS AND METHODS FOR EPITOPE SCANNING” (priority 2019, published 2023)

Columns and labels:
HLA-A*02:01 [1] = molecular target: T1, HLA-A*02:01 (Homo sapiens, UniProt P04439, D140Y/D185E/D98H/E176V/E277Q/G131W/G231S/I119V/I121R/I166T/I218V/L300P/L318F/N151K/N90K/P208A/P217A/Q86G/Q94H/R138H/R169H/T345S); format: cell-based
HLA-A*02:01 [2] = molecular target: T1, HLA-A*02:01; test: QuickSwitch Quant HLA-A*02:01 Tetramer control peptide exchange
HLA-B*57:01 = HLA-B*57:01 (Homo sapiens, UniProt P01889, D201E/D98Y/E176V/E187L/E204Q/E69M/E70A/G107R/I90N/K202T/L105A/L119I/N104I/N87E/Q89R/Q94S/R106L/R155S/R180L/R86G/S101N/S121V/S35A/S48A/T118I/V36M/Y140S/Y91M); test: Random 9-mer EpiScan screen in HLA-B57-expressing EpiScan cells with and without abacavir; format: cell-based; settings: 48 h abacavir treatment at 6 μM
[3] = cited from earlier work
CD8+ T cells = format: cell-based, human; set-up: key: y = yes; TBD = to be determined

Molecule | EpiScan MFI (HLA-A*02:01 [1]) | % Peptide Exchange (HLA-A*02:01 [2]) | Patient tetramer positivity? (CD8+ T cells) | other results
VMAYITGGV | 4.528 | 99.07% |  | 
Nc1nc(NC2CC2)c2ncn([C@H]3C=C[C@@H](CO)C3)c2n1 [Abacavir] |  |  |  | binding peptides with C-terminal Residue C, Abacavir treated (HLA-B*57:01): 3; binding peptides with C-terminal Residue F, Abacavir treated (HLA-B*57:01): 66; binding peptides with C-terminal Residue G, Abacavir treated (HLA-B*57:01): 4; binding peptides with C-terminal Residue I, Abacavir treated (HLA-B*57:01): 59; binding peptides with C-terminal Residue L, Abacavir treated (HLA-B*57:01): 10; binding peptides with C-terminal Residue M, Abacavir treated (HLA-B*57:01): 5; binding peptides with C-terminal Residue N, Abacavir treated (HLA-B*57:01): 1; binding peptides with C-terminal Residue R, Abacavir treated (HLA-B*57:01): 3; binding peptides with C-terminal Residue V, Abacavir treated (HLA-B*57:01): 28; binding peptides with C-terminal Residue W, Abacavir treated (HLA-B*57:01): 502; binding peptides with C-terminal Residue Y, Abacavir treated (HLA-B*57:01): 22; hypersensitivity, share of patients [3]: around 5%
VMAYITGGVV [SARS-CoV-2 HLA-A*02:01 peptide used for tetramer staining] | 4.641 | 99.07% | y | 
TLATHGLAAV | 4.040 | 97.98% |  | 
YIDIGNYTV | 4.421 | 97.94% |  | 
VLYQDVNCTEV | 5.598 | 97.92% |  | 
AMDEFIERYKL | 2.352 | 96.89% |  | 
SLPGVFCGV [SARS-CoV-2 HLA-A*02:01 peptide used for tetramer staining] | 6.418 | 98.00% | y | 
VMVELVAEL [SARS-CoV-2 HLA-A*02:01 peptide used for tetramer staining] | 5.338 | 98.63% | y | 
